First the molecules themselves.
B1: VG9B21 (antibody, human IgG1, kappa, V domains shown)
VH: EVQLLESGGGLVKPGGSLRLSCAASGFSFSNYDMNWVRQAPRKGLEWVSSISSSSHYIYYADSLKGRFTISRDNAKNSLFLQMNSLRAEDTAVYYCARDRGVTTDYYYYALDVWGQGTMVTVSS
VL: DIVMTQSPSSLSASVGDRVTITCRASQGIYNYLAWYQQKPGNVPKLLIYAASTLQSGVPSRFSGSGSGTDFSLTISSLQPEDFTTYYCQKYNRAPFTFGPGTKVDIKR
B2: VG9B57 (antibody, human IgG1, kappa, V domains shown)
VH: EVQLVESGGGLVKPGGSLRLSCAASGFTFSSHDMNWVRQAPGKGLGWVSSISSSSSYIFYADSVKGRFTISRDNAKNSLYLQMSSLRAEDTAVYYCARDLGVGVRDYYYYGMDVWGQGTMVTVSS
VL: DIQMTQSPSAMSASVGDRVTITCRASQDITNYLAWFQQKPGKVPKRLIYAASSLQGGVPSRFSGSGSGTEFTLTISSLQPEDFSTYYCLQHDTYPYTFGQGTKLEIKR
B3: VG9B64 (antibody, human IgG1, kappa, V domains shown)
VH: QVQLVESGPTLVKPTQTLTLTCTFSGFSLSISGVSVGWIRQPPGKALEWLALIYWNDDKRYSPSLQSRVTITKDTSKNQVVLTVTNMDSVDTATYYCVHSGQWLEGDAFDIWGQGTMVTVSS
VL: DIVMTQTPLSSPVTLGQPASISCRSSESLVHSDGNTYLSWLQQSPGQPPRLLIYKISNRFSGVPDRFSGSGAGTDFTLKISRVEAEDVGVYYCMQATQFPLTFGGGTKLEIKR
B4: VG9B409 (antibody, human IgG1, kappa, V domains shown)
VH: EVQLVESGAEVKKPGASVKVSCKASGYTLTSYYMHWVRQAPGQGLEWMGIINPSGGSTSYAQKFQGRVTMTRDTSTSTVYMELSSLRSEDTAVYYCARGSYGWYFDLWGRGTLVTVSS
VL: EIVLTQSPGTLSLSPGERATLSCRASQSVTSSYLAWYQQKPGQTPRLLIYGASSRATGIPDRISGSGSGTDFTLTVSRLEPEDFAVYYCQQYGSSPPYTFGQGTKLEIKR
B5: VG9B60 (antibody, human IgG1, kappa, V domains shown)
VH: QVQLVQSGAEVKKPGASVKVSCKASGYTFTGYYMHWVRQAPGQGLEWMGRINPNSGVTHYAQKFQGRVTMTRDTSISTAYMELSRLRSDDTAVYYCARGGSLVRGVISGLDYWGQGTTVTVSS
VL: DIVMTQSPGTLSLSPGERATLSCRASQSFSGSYLAWYQQKPGQAPSLLIYGASSRATGIPDRFSGSGSGTDFTLTISRLEPEDFALYYCQQYGSSPPYTFGQGTKVEIKR
B6: VG9B135 (antibody, human IgG1, kappa, V domains shown)
VH: QVTLKESGPTLVTPSQTLTLTCTFSGFSLTTYGVGVGWIRQPPGKALEWLALIYWNDDKRYYPSLNNRLTITKDTSKHLVVLTLTNMDPVDTATYYCAHDYDFWSGYFDYWGQGTLVTVSS
VL: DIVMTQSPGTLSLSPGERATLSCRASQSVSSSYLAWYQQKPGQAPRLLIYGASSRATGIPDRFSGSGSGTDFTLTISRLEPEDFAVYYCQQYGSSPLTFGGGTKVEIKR
B7: VG9B66 (antibody, human IgG1, kappa, V domains shown)
VH: EVQLVESGGGLVKPGGSLRLSCAASGFTFSTYTMNWVRQAPGKGLEWVSSISSSSFYMDYADSVKGRFTISRDNAKNSLSLLMNSLRAEDTAVYYCARDGDIVATIRGSFDYWGQGTMVTVSS
VL: EIVLTQSPSSLSTSVGDRVTITCRASQDITNFLAWYQQKPGKLPKLLIYTASTLQSGVPSRFSGSASGPDFTLTISSLQPEDVATYYCQKYNSAPFTFGPGTKVEIKR
B8: VG9B128 (antibody, human IgG1, kappa, V domains shown)
VH: EVQLVESGGGVVQPGKSLRLSCTASGFTFGTYGMHWVRQAPGKGLDWVAVIWYNGSNKYYADSVKGRFTISRDNSKNTLYLQMNSLRTEDTAVYYCARGGFGESFDSWGQGTLVTVSS
VL: DIVMTQTPATLSLSPGERATLSCRASQSVIDYLAWFQQKPGQAPRLLIYDASNRATGIPARFSGSGSGTDFTLTISSLEPEDFAVYYCQQRSNWPLTFGGGTKVEIKR
B9: VG9B152 (antibody, human IgG1, lambda, V domains shown)
VH: EVQLVESGGGLVRPGGSLRLSCEASGFTFSSYSMIWVRQAPGKGLEWVSSISSSSDYIYNADSVKGRFTISRDNAKNSLYLQMNSLRAEDTAVYYCARDWELLGFDCWGQGTTVTVSS
VL: SYELMQPPSVSVSPGQTASITCSGDKLGDKYACWYQQKPGQSPVLVIYQHNKRPSGIPERFSGSNSGKTATLTISGTQAMDEADYYCQAWDSTTVVFGGGTKLTVLG
B10: VG9B32 (antibody, human IgG1, kappa, V domains shown)
VH: EVQLVQSGGDLLQPGGSLRLSCAASGFTFSRYAMNWVRQAPGKGLEWVSFISGTGYTVYYADSVKGRFTISRDNAKNSLYLQMNSLRDEDTAVYYCARDQEPGFDYWGQGTLVTVSS
VL: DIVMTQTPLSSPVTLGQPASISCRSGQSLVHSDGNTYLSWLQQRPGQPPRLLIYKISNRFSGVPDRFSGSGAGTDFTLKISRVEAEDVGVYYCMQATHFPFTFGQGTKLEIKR
B11: VG9B470 (antibody, human IgG1, kappa, V domains shown)
VH: QVTLKESGPTLVKPTQTLTLTCTFSGFSLTTSGVGVGWIRQPPGKALEWLALILWNDHTIYSPSLKSRLTITKDTSKNQVVLTMTNMDPVDTAAYFCARDKWELRDAFDIWGQGTMVTVSS
VL: EIVMTQSPSFLSASVGDRVTFTCRASQGISRYLAWYQQKPGRAPNLLIYVASTLQSGVPSRFSGSGSGTEFTLTISSLLPEDFATYYCQQLISYPYTFSQGTRLEIKR
notes: also called antibody #61
B12: VG9B129 (antibody, human IgG1, kappa, V domains shown)
VH: EVQLVQSGAEVKKPGSSVKVSCKASGGTFSSYVISWVRQAPGQGLEWMGGILPILSTANYAQKFQGRVTITADKSTSTAYMELSSLRSEDTAVYYCARAHDYYYGMDVWGQGTTVTVSS
VL: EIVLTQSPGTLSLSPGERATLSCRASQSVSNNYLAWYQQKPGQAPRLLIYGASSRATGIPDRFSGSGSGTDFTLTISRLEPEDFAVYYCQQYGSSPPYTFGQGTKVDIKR
notes: also called antibody #59
B13: VG9B383 (antibody, human IgG1, lambda, V domains shown)
VH: QVQLQESGPGLVKPSETLSLTCTVSSGSISSYYWNWIRQPAGKGLEWVGRIYTIGNTNYNPSLKSRVTMSIDTSKNQFSLNLSSVTAADTAVYFCAREGYYDSSGSFFPGAFGIWGQGTMVTVSS
VL: SSELTQPASVSGSPGQSITISCTGTSNDVGSYNLVSWYQQHPGKAPKLMIYAGSKRPSGISNRFSGSKSGNTASLTISGLQAEDEADYYCCSFAGATNVVFGGGTKLTVLG
notes: also called antibody #67
B14: VG9B396 (antibody, human IgG1, lambda, V domains shown)
VH: EVQLVESGPGLVQPSETLSLTCTVSGDSIRGYYWNWIRQPAGKGLEWIGRIFTTGNTNYNPSLKSRLTMSLDTSKNQFSLKLNSVTAADTAVYYCAREKWDSSSSALYFDFWGQGTLVTVSS
VL: QSVLTQAPSVSGAPGQRVTISCTGSSSNIGADYDVKWYQQLPGTAPKLLIYGNTDRPSGVPDRFSGSKSGTSASLAITGLQAEDEADYYCQSYDSRLTGYVVFGGGTKLTVLG
notes: also called antibody #60
B15: VG9B169 (antibody, human IgG1, lambda, V domains shown)
VH: EVQLLESGPGLVKPSETLSLTCSVSGGSITNYFWNWIRQPPGKGLEWIGYIFYSGSTSYNPSLKSRVTISVDTSKNRFSLKLISVTAADTAVYYCARVGRWELRTAFDIWGQGTMVTVSS
VL: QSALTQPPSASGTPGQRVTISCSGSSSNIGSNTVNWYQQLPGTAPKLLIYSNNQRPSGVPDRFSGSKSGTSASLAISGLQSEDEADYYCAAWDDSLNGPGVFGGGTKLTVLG
notes: also called antibody #63
B16: VG9B111 (antibody, human IgG1, kappa, V domains shown)
VH: QVQLLESGGGLVKPGGSLRLSCAASGFTFSTYSVNWVRQAPGKGLEWVSSISSDSSYIFYADSMKGRFTISRDNAKNSLYLHMNSLRAEDTAVYYCARDSVTGPFDYWGQGTLVTVSS
VL: DIVMTQSPSSLSASVGDRVTITCQASQDISHYLNWYQQKPGKAPKLLIYDSYILETGVTSRFSGSGSGTDFTFTINSLQPEDIAIYYCQQYDNLPYTFGQGTKVEIKR
notes: also called antibody #62
B17: VG9B639 (antibody, human IgG1, kappa, V domains shown)
VH: QVQLVQSGGGLVKPGGSLRLSCAASGFTFTTYRMNWVRQAPGKGLEWVSSISSSSIYIHSADSVKGRFTISRDNAKNSLYLQMNSLRAEDSAIYYCARERVYTVSFDYWGQGTLVTVSS
VL: DIQMTQSPSSLSASVGDRVTITCQASQDISHYLNWYQQKPGKAPKLLIYDSYILETGVTSRFSGSGSGTDFTFTINSLQPEDIAIYYCQQYDNLPYTFGQGTKVEIKR
notes: also called antibody #64
B18: VG9B161 (antibody, human IgG1, lambda, V domains shown)
VH: QVQLQESGPGLVKPSETLSLTCTVSGGSISSYFWSWIRQPPGKGLEWIGYIFYSGSTNYNPSLKSRVTILVDTSKNHFSLKLSSVTAADTAVYYCARVGRWELRGAFDIWGQGTMVTVSS
VL: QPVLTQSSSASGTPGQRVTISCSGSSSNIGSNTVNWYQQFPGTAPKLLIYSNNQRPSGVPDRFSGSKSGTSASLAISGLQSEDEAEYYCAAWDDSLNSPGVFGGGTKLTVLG
notes: also called antibody #66
B19: VG9B411 (antibody, human IgG1, kappa, V domains shown)
VH: EVQLVESGGGLVKPGGSLRLSCSASGFTFSNYDMNWVRQAPGKGLEWVSSISSSSSYIYYADSVKGRFTISRDNAKNSLYLQMNSLRAEDTAVYHCARDVGVTTDYYYYGMDVWGQGTTVTVSS
VL: EIVMTQSPSSVSASVGDRVTITCRASQGINSWLAWYQQDPYKAPKLLIYAASTLQSGVPSRFGGRGSGTEFTLTISSLQPEDFAVYYCQQYNNWPRTFGQGTKVDIKR
notes: also called antibody #58
B20: VG9B201 (antibody, human IgG1, lambda, V domains shown)
VH: QVTLKESGPTLVKPTQTLTLTCTFSGFSLTTHGVGVGWIRQPPRKALEWLALIYWNADKHYSPSLKSRLTITKDTSKNQVVLTMTHMDPVDTATYYCAHEGDWGHYFDFWGQGTLVTVSS
VL: QLVLTQPPSVSAAPGQKVTISCSGSSSNIGNNDVSWYQQLPGTAPKLLIYDNNRRPSGIPDRFSGSKSGTSATLGITGLQTGDEADYYCETWDSSLSAIWVFGGGTKVTVLG
notes: also called antibody #65

These results are taken from patent US20220125947A1 (published 2022).

For the first assay, the target named is T1, γδ T cell receptor on human γδ T cells (human).
T1 construct: Mixed population of primary cells; also called AG000003021 (γδ T cells)
The experiment in a line: flow cytometry, dose-response binding at 37° C. on human γδ T cells. The method, then: (§1) Binding of antibodies to human γδ T cells or SKW cell lines expressing Vγ9/Vδ2, Vγ9/Vδ2 or Vγ5/Vδ2 was carried out by flow cytometry. Briefly, the cells were centrifuged at 300×g for 5 minutes and the pellet was resuspended in 34 ml fresh media (in RPMI+10% FBS). 50 μL of the cells were then plated (44K cells/well) into assay plates. Samples were incubated for one hour at 37° C. in tissue culture (TC) incubator followed by wash steps by adding 100 μl FACS staining buffer. Secondary detention antibodies (A647 conjugated anti-human IgG Fc specific antibody (2 μg/mL) along with AF488 anti mouse CD3, clone OKT3 at 1 ug/mL) were added at 50 μL/well to appropriate wells according to the plate map. After incubating for 60 minutes at 37° C. in the TC incubator, cells were again washed as described above. This is followed by resuspension in 20 μL/well running buffer containing 1:1000 dilution of Sytox blue dead cell stain and the plates were run on iQue Screener.
(§2) Gating and data analysis: Human anti-human Vγ9 antibody (VG9B2 mAb at 10 nM) was used to mark the gating of positive population. All cells were first gated for singlets on SCS-A vs. SCS-H dot plot, live/dead followed by CD3 positive population, and this subset of CD3 positive population was gated for Vγ9 positive binding using positive control mAb. Cells were also assessed for cell binding of control mAbs by RL1 (A647) Geomeans from the live cell population. Advanced metrics were used and normalization metrics were chosen to calculate fold over background wells containing secondary antibody alone (designated as ‘background’ within ForeCyt settings).
With B1, the “Max. Activity” value is 1670 fold over background.

Regarding B2, the “Max. Activity” value amounted to 1210 fold over background. As to B3, the “Max. Activity” value turned out to be 1690 fold over background. On to B4, for which the “Max. Activity” value is 411 fold over background.

As for B5, the “Max. Activity” value is 567 fold over background. For B6, the “Max. Activity” value worked out at 577 fold over background. On the same count and under the same terms, in the case of B7 it was 1220 fold over background. As for B8, the “Max. Activity” value was found to be 1480 fold over background. As to B9, the “Max. Activity” value was 1850 fold over background. In the case of B10, the “Max. Activity” value was 1210 fold over background.

Another assay addresses T2, γδ T cell receptor on human γδ T cells (human).
T2 construct: also called AG000003021 (γδ T cells)
The experiment in a line: flow cytometry, dose-response (DRC) binding at 37°C on human γδ T cells. The method, then:
as §1, §2
For orientation: In flow cytometry, cells or beads pass a laser one at a time.
As to B11, the “Max. Activity” value was 4270 fold over background. In the case of B12, the “Max. Activity” value is 271 fold over background. In the case of B13, the “Max. Activity” value is 2780 fold over background.

Regarding B14, the “Max. Activity” value was found to be 4540 fold over background. For the molecule B15, the “Max. Activity” value was 3250 fold over background.

B16: the “Max. Activity” value amounted to 3430 fold over background.

For the molecule B17, the “Max. Activity” value amounted to 3240 fold over background. With B18, the “Max. Activity” value came out at 2820 fold over background.

For the molecule B19, the “Max. Activity” value worked out at 396 fold over background. Turning to B20, the “Max. Activity” value was 3170 fold over background.
